The supplement of paper PMC7125110
± gives the standard error. Variants at the floor of the assay were thinned out.

B1: glmS ribozyme (parent)
chain: AUAAAAGCGCCAGAACUACAGAAAUGUAGUUGACGAGGAGGAGGUUUAUCGAAUUUUCGGCGGAUGCCUCCAAA

How the values were obtained:
Settings in all cases: with glucosamine-6-phosphate
glucosamine-6-phosphate [1] = variants of: B1; experiment: self-cleavage kobs at 160 uM GlcN6P; higher = faster cleavage; RNA array
In short: (§1)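 The measurements used barcoded ribozyme variants on sequenced MiSeq chips, transcribed in situ by E. coli RNA polymerase and tracked at 37 °C with a hybridised Cy3 probe. Glucosamine-6-phosphate, 40 μM to 10 mM in HEPES/KCl/Mg(OAc)2 buffer, was flowed in while tiles were imaged over ~14 h. Baseline-normalised signals, also normalised to non-cleaving reference variants, gave per-tile medians that were fit to one- or two-exponential decays for kobs. kcat and KM resulted from weighted Michaelis–Menten fits across concentrations.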

glucosamine-6-phosphate [2] = variants of: B1; experiment: self-cleavage kobs at 640 uM GlcN6P; higher = faster cleavage; RNA array
In short: as §1

glucosamine-6-phosphate [3] = variants of: B1; experiment: self-cleavage kobs at 2500 uM GlcN6P; higher = faster cleavage; RNA array
In short: as §1

glucosamine-6-phosphate [4] = variants of: B1; experiment: self-cleavage kobs at 10000 uM GlcN6P; higher = faster cleavage; RNA array
In short: as §1

Row | Variant | self-cleavage kobs at 160 uM GlcN6P (glucosamine-6-phosphate [1]) [s⁻¹] | self-cleavage kobs at 640 uM GlcN6P (glucosamine-6-phosphate [2]) [s⁻¹] | self-cleavage kobs at 2500 uM GlcN6P (glucosamine-6-phosphate [3]) [s⁻¹] | self-cleavage kobs at 10000 uM GlcN6P (glucosamine-6-phosphate [4]) [s⁻¹]
1 | AUAAAGGCGCCAGAACUACAGAAAUGUAGUUGACGAGGAGGAGGUUCAUCGAAUUUUCGGCGGAUGGCUCCAAA | < 1e-05 | < 1e-05 |  | 
2 | AUAAAAGCGACAGAACUACAGAAAUGUAGUUCACGAGGAGGAGGUUUAUCUAAUUUUCGGCGGAUGCCUCCAAA | < 1e-05 |  |  | 
3 | AUAAAAGAGCCAGACCUACAGAAAUGUAGUUGAAGAGAAGGAGGUUUAUCGAAUUUUCGGCGGAUGCGUCCAAA | 0.000422 ± 0.00011 | 0.000341 ± 8.5e-05 | 0.00055 ± 0.00013 | 
4 | AUAAAUGCACCAGAACUACAGAAAUGUAGUUGACGAGGAGGAGGUUUACCGAAUUUUCGGCGGAUGCCUCCAAA | < 1e-05 |  |  | 
5 | AUAAACCCGCCAGAACUACAGAAAUGUAGUUGCCGAGGAGGAGGUUUAUGGCAUUUUCGGCGGACGCCUCCAAA | < 1e-05 |  |  | 
6 | AUAAAAGCGCCAGAACUACAGAAAUGUAGUUGACUAGGAGGAGGUUUAUCGAAUUUUCGGUGGAUGCCUCCAAA | < 1e-05 | < 1e-05 | < 1e-05 | 
7 | AUAAAAGCGCCAGAACUACAGAAAUGUAGUUGACGAGGAGGAGGUUUAUCGAAUUUUUGGCGAAUGCCUCCAAA | < 1e-05 |  |  | < 1e-05
8 | AUAAAAGCGACAGAACUACAGAAAUGUAGUUGACAAGGGGGAGGUUUAUCGAAUUUUCGGCGGAUGCCUCCAAA | < 1e-05 |  | < 1e-05 | 
9 | AUAAAAGCGCCACAUCUACAGAAAUGUAGUUGACGAGGAGGAGGUUUAUCUAAUUUUCGGCGGAUGUGUCCAAA | 6.58e-05 ± 2.5e-05 |  |  | 
10 | AUAAAAGCACCAGAACUACAGAAAUGUAGUUGACGUGGAGGAGGUUUAUCGAAUUUUCGGCGGAUGCUUCCAAA | < 1e-05 | < 1e-05 |  | 
11 | AUAAAAGGGCCAGAACUACAGAAAUGUAGUUGACGAGGAGGAGGUUUAUCGAAUUUUCGGCGGAUGCCUCGAAA | < 1e-05 | < 1e-05 | < 1e-05 | < 1e-05
12 | AUAAAACCGCCAUAACUACAGAAAUGUAGUUGACGCGGAGGAGGUUUAUCGAAUUUUCGGCGGAUGCAUCCAAA | < 1e-05 |  | < 1e-05 | 
13 | AUAAAAGCGCAAGCACUACAGAAAUGUAGUGGACGAGGAGGAGGUUUAUCGAAUUUUCGGCGGAGGCCUCCAAA | < 1e-05 |  |  | 2.62e-05 ± 1.2e-05
14 | AUAAAAGCGCCAGAACUACAGAAAUGUAAUUGACCAGGAGGAGGUUUAUCGAAUUUUCGGCGGAUGCCUCCAAA | < 1e-05 | < 1e-05 | < 1e-05 | < 1e-05
15 | AUAAAAGCGCCAGGACUACAGAAAUGUAGUUGACGCGGAGGAGCUUUAUCAAAUUUUCGGCAGAUGCCUCCAAA | < 1e-05 |  |  | 
16 | AUAAAAGCGCCAGAACUACAGAAAUGUAGUUGACGAGGAGGAGGUGUAUCGAAUGUUCGCCGGAUGCCUCCAAA | < 1e-05 |  | < 1e-05 | 
17 | AUAAAAGUGCCAGAACUACAGAAAUGUAUUUGAUGAGGAGGAGGUGUAUCGAGUUUUCGGCGGAUGCCUCCAAA | < 1e-05 | < 1e-05 | < 1e-05 | 
18 | AUAAAAUCGCUAGAACUACAGAAAUGUAUAUGACGAGGAGGAGGUUUAUCGAAUUUUCGGCGGAUGCCUCCAAA | < 1e-05 | < 1e-05 |  | 
